{"source": "paper PMC4589137", "origin": "cited, not measured here", "biological_target": "α-melanocyte stimulating hormone (α-MSH) (UniProt P01189)"}
{"substance": "melanocortin 1 receptor (MC1R) (from UniProt Q01727)", "values": [{"measurement": "Kd", "result": 0.4, "unit": "nM"}]}
